T1: Fba peptide (Candida albicans)
T1 construct: Synthetic 14-mer (GenScript) from the N-terminus of C. albicans fructose-bisphosphate aldolase
T1 peptide: YGKDVKDLFDYAQEC

T2: Met6 peptide (Candida albicans)
T2 construct: Synthetic 14-mer (GenScript) from the N-terminus of the C. albicans Met6 cell wall protein
T2 peptide: PRIGGQRELKKITEC

B1: 2D5F7 (antibody, V domains shown)
VH: QVQLQQSAAELARPGASVKMSCKASGYTFSSYTMHWVKQRPGQGLEWIGYINPSSGYTDYNQKFKDKTTLTADKSSSTAYMQLSSLTSEDSAVYYCARLYDNYDYYAMDYWGQGTSVTVSS
VL: DIVMSQSPSSLAVSAGEKVTMSCKSSQSLLNSRIRKNYLAWYQQKPGQSPKLLIYWASTRESGVPDRFTGSGSGTDFTLTISSVQADDLAVYYCKQSYNLLTFGAGTKLELK
notes: Mouse hybridoma mAb, IgG2b; The entries are 140 AA and 132 AA and their DNA starts with ATG, so they may include the leader peptide; The limits are printed only as drawings and no residues were cut
B2: 2B10C1 (antibody, V domains shown)
VH: QVQLQQPGAEVVRPGASVKVSCKASGYTVSSYWMSWVKQRPEQGLEWIGRIDPYDSETHYNQKFKDKAILTVDKSSSTAYMQLSSLTSEDSAVYYCARTAASFDYWGQGTTLTVSS
VL: DVVMTQTPLSLPVSLGDQASISCRSSQSLVHSNGNSYLHWYLQKPGQSPKLLIYKVSNRFSGVPDRFSGSGSGTDFTLNISRVEAEDLGVYFCSQSTHVPFTFGSGTKLEIK
notes: Mouse hybridoma mAb, IgG1; The entries are 135 AA and 131 AA and their DNA starts with ATG, so they may include the leader peptide; The limits are printed only as drawings and no residues were cut; also called 2810C1

Assays:
Fba peptide = molecular target: T1, Fba peptide; assay: specificity listed in table; hybridomas screened by anti-peptide ELISA
Met6 peptide = molecular target: T2, Met6 peptide; assay: as above

| Binder | binding result (Fba peptide) | binding result (Met6 peptide) |
| --- | --- | --- |
| B1 | binds | – |
| B2 | – | binds |

— patent US20200222518A1 (BOARD OF SUPERVISORS OF LOUISIANA STATE UNIVERSITY AND …, published 2020)
